Each binder was assayed against HGF (hepatocyte growth factor/scatter factor) (UniProt P14210;P14210 P14210:32-494,P14210:495-728) (assay: filter; HBSMC, 37C). Conditions: tags: R&D Systems.
Protocol: In binding reactions, RNA concentrations were kept as low as possible—between 1 and 20 pM—to ensure equilibrium in conditions of protein excess. Oligonucleotides were incubated for 15 minutes at 37° C. with varying amounts of the protein in 43 µl of the binding buffer. Thirty-two microliters of each binding mixture placed on pre-wet 0.45 µm nitrocellulose filters under suction. Each well was immediately washed with 0.5 ml binding buffer. The amount of radioactivity retained on the filters was quantitated by imaging. The radioactivity that bound to filters in the absence of protein was used for background correction. The percentage of input oligonucleotide retained on each filter spot was plotted against the corresponding log protein concentration. The nonlinear least square method was used to obtain the dissociation constant (K_d; reference Jellinek, Lynott et al. 1993, Proc. Natl. Acad. Sci. USA. 90:11227–31).

Sequence of HGF (hepatocyte growth factor/scatter factor) (P14210 32-494, chain 1 of 2): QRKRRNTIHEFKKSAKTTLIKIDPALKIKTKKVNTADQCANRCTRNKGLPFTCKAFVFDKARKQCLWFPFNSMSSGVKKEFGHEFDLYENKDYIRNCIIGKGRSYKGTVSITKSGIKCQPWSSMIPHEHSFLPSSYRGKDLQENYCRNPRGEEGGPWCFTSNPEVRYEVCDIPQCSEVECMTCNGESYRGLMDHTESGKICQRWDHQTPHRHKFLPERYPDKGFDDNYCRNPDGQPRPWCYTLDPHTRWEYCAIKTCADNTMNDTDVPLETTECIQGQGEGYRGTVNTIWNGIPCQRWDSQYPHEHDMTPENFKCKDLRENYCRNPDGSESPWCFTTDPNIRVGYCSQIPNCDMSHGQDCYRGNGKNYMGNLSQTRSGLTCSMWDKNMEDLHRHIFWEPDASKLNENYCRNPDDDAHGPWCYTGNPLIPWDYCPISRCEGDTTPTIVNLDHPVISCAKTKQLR
Sequence of HGF (hepatocyte growth factor/scatter factor) (P14210 495-728, chain 2 of 2): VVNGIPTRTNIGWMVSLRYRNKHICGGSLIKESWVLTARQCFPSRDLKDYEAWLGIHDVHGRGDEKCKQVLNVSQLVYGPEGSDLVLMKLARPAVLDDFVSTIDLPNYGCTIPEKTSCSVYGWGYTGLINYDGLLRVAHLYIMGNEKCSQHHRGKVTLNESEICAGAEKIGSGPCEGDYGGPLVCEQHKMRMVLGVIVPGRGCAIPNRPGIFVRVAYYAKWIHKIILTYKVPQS

Row | Binder | Kd
1 | 11-153 (ssRNA, 2'-F pyrimidines) RNA: GGGAGGACGAUGCGGACAGGUAGUCUUCUAUAGCACUUCCUCCCCCAGACGACUCGCCCGA | 0.19 nM
2 | 8-125 (ssRNA, 2'-F pyrimidines) RNA: GGGAGGACGAUGCGGUGUGAACCUGUUUAUGUCAUCUUUUGUCGUCAGACGACUCGCCCGA | 0.075 nM
3 | 8-165 (ssRNA, 2'-F pyrimidines) RNA: GGGAGGACGAUGCGGCGAGAGCCUAUUUAUGUCAUCAUGCCUGUGCAGACGACUCGCCCGA | 0.1 nM
4 | 8-171 (ssRNA, 2'-F pyrimidines) RNA: GGGAGGACGAUGCGGCGGGAGCCUUUUUAUGUCAUCAUGUCUGUGCAGACGACUCGCCCGA | 0.12 nM
5 | 11-8 (ssRNA, 2'-F pyrimidines) RNA: GGGAGGACGAUGCGGUCAGUAUGACUUUUAUAGCACGUUCGCCCCAGACGACUCGCCCGA | 0.15 nM
6 | 11-157 (ssRNA, 2'-F pyrimidines) RNA: GGGAGGACGAUGCGGUCAGAAUGACUUUCAUAGCACGCUUUCCCCAGACGACUCGCCCGA | 0.26 nM
7 | 8-119 (ssRNA, 2'-F pyrimidines) RNA: GGGAGGACGAUGCGGGCCAUUCGAUCGAUUCUCCGCCGGAUCGUGCAGACGACUCGCCCGA | 0.11 nM
8 | 11-208 (ssRNA, 2'-F pyrimidines) RNA: GGGAGGACGAUGCGGGUUUGAGUGACGAUCGUCUUGUCCCAUGUGCAGACGACUCGCCCGA | 0.06 nM
9 | 11-110 (ssRNA, 2'-F pyrimidines) RNA: GGGAGGACGAUGCGGUGAUUACCUAUUUAUGUCAUGCUCCUCCCCCAGACGACUCGCCCGA | 0.086 nM
10 | 8-126 (ssRNA, 2'-F pyrimidines) RNA: GGGAGGACGAUGCGGGUGACUCAAAAUGGUGAUCCUCGUUUCCGCCAGACGACUCGCCCGA | 0.099 nM
11 | 11-163 (ssRNA, 2'-F pyrimidines) RNA: GGGAGGACGAUGCGGGCUUGAGUCUUUGAUCGUCUUAUCCCUCGUCAGACGACUCGCCCGA | 0.082 nM
12 | 8-122 (ssRNA, 2'-F pyrimidines) RNA: GGGAGGACGAUGCGGCGGUGUGAACCUGUUUAUGUCCGCGUACCCCAGACGACUCGCCCGA | 0.097 nM
13 | 11-212 (ssRNA, 2'-F pyrimidines) RNA: GGGAGGACGAUGCGGGUUUGAGUUAAACAUCGGUUUUCUCCUGCAGACGACUCGCCCGA | 0.075 nM
14 | 11-103 (ssRNA, 2'-F pyrimidines) RNA: GGGAGGACGAUGCGGUGAUUACCUAUUAUGUCUCGCCCUCUCCAGACGACUCGCCCGA | 0.2 nM
15 | 11-9 (ssRNA, 2'-F pyrimidines) RNA: GGGAGGACGAUGCGGCGUGAGCCUGUUUAUGACCUCGUCCAUGGCCAGACGACUCGCCCGA | 0.074 nM
16 | 11-217 (ssRNA, 2'-F pyrimidines) RNA: GGGAGGACGAUGCGGCGUGAGCCUUCCAAUGACGUCGUCCUUGGCCAGACGACUCGCCCGA | 0.071 nM
17 | 11-158 (ssRNA, 2'-F pyrimidines) RNA: GGGAGGACGAUGCGGCGAUAGCCUAUUUAUGACCUCGUCCCCGUGCAGACGACUCGCCCGA | 0.17 nM
18 | 11-126 (ssRNA, 2'-F pyrimidines) RNA: GGGAGGACGAUGCGGGUUUGGGUCUUGAUCUCGUCUUGUCCCGUGCAGACGACUCGCCCGA | 0.17 nM

Row | Binder | Kd
19 | 11-59 (ssRNA, 2'-F pyrimidines) RNA: GGGAGGACGAUGCGGCGUGAGCCUGUAUAUGUCAUUGUUCUCCGGCAGACGACUCGCCCGA | 0.11 nM
20 | 8-103 (ssRNA, 2'-F pyrimidines) RNA: GGGAGGACGAUGCGGGCCGAAAAUUCGUCGACAUCUCCCUGUCUGCAGACGACUCGCCCGA | 0.12 nM
21 | 11-6 (ssRNA, 2'-F pyrimidines) RNA: GGGAGGACGAUGCGGGACGCGUUGAUUCAUCGUCUUAUCCUGCUGCAGACGACUCGCCCGA | 0.24 nM
22 | 11-104 (ssRNA, 2'-F pyrimidines) RNA: GGGAGGACGAUGCGGGUUUGAGUGAUGUCGUCUUGUCCCGCCUGCCAGACGACUCGCCCGA | 0.091 nM
23 | 8-17 (ssRNA, 2'-F pyrimidines) RNA: GGGAGGACGAUGCGGGCGGCUCGAUGUCGUCUUAUCCCUUUGCCCCAGACGACUCGCCCGA | 0.095 nM
24 | 8-158 (ssRNA, 2'-F pyrimidines) RNA: GGGAGGACGAUGCGGCCGGCUCGAUGUCGUCUUACCCCUUUGCCCCAGACGACUCGCCCGA | 0.31 nM
25 | 11-65 (ssRNA, 2'-F pyrimidines) RNA: GGGAGGACGAUGCGGUGAUAACCUGUUUAUGCCAUCGUGCUGGGCCAGACGACUCGCCCGA | 0.11 nM
26 | 8-155 (ssRNA, 2'-F pyrimidines) RNA: GGGAGGACGAUGCGGUGUGAACCUAUUUAUGCCAUCUCGAGUGCCCAGACGACUCGCCCGA | 0.093 nM
27 | 8-104 (ssRNA, 2'-F pyrimidines) RNA: GGGAGGACGAUGCGGGCGACUCAAUCUGAAUCGUCUUGUCCCGUGCAGACGACUCGCCCGA | 0.05 nM
28 | 11-222 (ssRNA, 2'-F pyrimidines) RNA: GGGAGGACGAUGCGGACAUAAGUCUUCUAUAGCUCGUCCUUUGUGCAGACGACUCGCCCGA | 0.077 nM
29 | 8-118 (ssRNA, 2'-F pyrimidines) RNA: GGGAGGACGAUGCGGGGCGACUUUCCUCCAAUUCUCACCUCUGCACAGACGACUCGCCCGA | 0.16 nM
30 | 11-223 (ssRNA, 2'-F pyrimidines) RNA: GGGAGGACGAUGCGGUCAGUAUGGCUUCUAUAGCUCGUUCCUCGGCAGACGACUCGCCCGA | 0.12 nM
31 | 8-101 (ssRNA, 2'-F pyrimidines) RNA: GGGAGGACGAUGCGGGUGACUCAAAAUGGUGAUCCUCGAUUUCCGCCAGACGACUCGCCCGA | 0.095 nM
32 | 8-3 (ssRNA, 2'-F pyrimidines) RNA: GGGAGGACGAUGCGGAUCCCGCGACCAGGGCGUUUCUUCCUCGUCCCAGACGACUCGCCCGA | 0.13 nM
33 | 11-76 (ssRNA, 2'-F pyrimidines) RNA: GGGAGGACGAUGCGGUCAGCGGCGCGAGCCUGUUUAUGUCUGCUGCAGACGACUCGCCCGA | 0.076 nM
34 | 8-112 (ssRNA, 2'-F pyrimidines) RNA: GGGAGGACGAUGCGGUCCCGAAUUUAAGUGCGUUUCCUCCGCGUCCAGACGACUCGCCCGA | 0.13 nM
35 | 8-154 (ssRNA, 2'-F pyrimidines) RNA: GGGAGGACGAUGCGGUCCCAAGAUUCAGGGCGUUUCUUCCUCGUCCAGACGACUCGCCCGA | 0.12 nM
36 | 8-123 (ssRNA, 2'-F pyrimidines) RNA: GGGAGGACGAUGCGGUCCCGAGUUUGAGGGCGUUUCUUCUUCGUCCAGACGACUCGCCCGA | 0.21 nM

Reference: US6344321, “Nucleic acid ligands which bind to hepatocyte growth factor/scatter factor (HGF/SF) or its receptor c-met” (Gilead Sciences, Inc.)
